Read-outs that look alike come from different tables or passages of the source.

Assay in all cases: Octet BLI; Fab 200 nM
Background: Biolayer interferometry detects binding as a change in optical thickness at a sensor tip.

Assay [1] has as its target T1, extracellular domain of rhesus monkey BCMA (rhesus monkey, UniProt F7FFA0 1-53).
T1 construct: extracellular domain; also called RhBCMA

In assay [2] the target is T2, extracellular domain of human BCMA (human, UniProt Q02223 1-54).
T2 construct: amine-linked to Octet AR2G tips; also called hsBCMA; BCMA (human)
T2 sequence: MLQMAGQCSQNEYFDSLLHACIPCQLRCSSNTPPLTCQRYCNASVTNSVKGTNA

For assay [3], the target named is T1, extracellular domain of rhesus monkey …. The source holds these as a separate data set.
The target of assay [4] is T2, extracellular domain of human BCMA. The source holds these as a separate data set.
The target of assay [5] is T1, extracellular domain of rhesus monkey …. This is another data set of the same source.
Assay [6] concerns the target T2, extracellular domain of human BCMA. The source holds these as a separate data set.

T1 sequence (F7FFA0 entry or part of it): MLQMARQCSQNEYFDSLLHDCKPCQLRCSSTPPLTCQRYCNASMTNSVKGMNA

B1: AB200_Fab (D99D) (Fab, V domains shown)
VH: QVQLVQSGAEVKKPGSSVKVSCKASGGTFSNYWMHWVRQAPGQGLEWMGATYRGHSDTYYNQKFKGRVTITADKSTSTAYMELSSLRSEDTAVYYCARGAIYDGYDVLDNWGQGTLVTVSS
VL: DIQMTQSPSSLSASVGDRVTITCSASQDISNYLNWYQQKPGKAPKLLIYYTSNLHSGVPSRFSGSGSGTDFTLTISSLQPEDFATYYCQQYRKLPWTFGQGTKLEIKR
In assay [1], B1 showed a Kd of 5.89 nM, a koff of 0.00118 s⁻¹ and a kon of 200000 M⁻¹ s⁻¹. In addition, in assay [2], the Kd came out at 3.45 nM, the koff was 0.00058 s⁻¹ and the kon turned out to be 170000 M⁻¹ s⁻¹.

B2: AB200-(2Vk31)_R2-CDR2-hs-v3 (Fab, V domains shown)
VH: QVQLVQSGAEVKKPGSSVKVSCKASGGTFTNYWIHWVRQAPGQGLEWMGGIIPIFGTANYAQKFQGRVTITADKSTSTAYMELSSLRSEDTAVYYCARGAVYHGYDVIDNWGQGTLVTVSS
VL: DIQMTQSPSSLSASVGDRVTITCRASQSISSYLNWYQQKPGKAPKLLIYATSNLQIGVPSRFSGSGSGTDFTLTISSLQPEDFATYYCQQFRRLPWTFGQGTKLEIKR
For B2, the Kd in assay [3] came to 216 nM; in assay [4], 126 nM.

B3: AB200_Fab + D99H (Fab, V domains shown)
VH: QVQLVQSGAEVKKPGSSVKVSCKASGGTFSNYWMHWVRQAPGQGLEWMGATYRGHSDTYYNQKFKGRVTITADKSTSTAYMELSSLRSEDTAVYYCARGAIYHGYDVLDNWGQGTLVTVSS
VL: DIQMTQSPSSLSASVGDRVTITCSASQDISNYLNWYQQKPGKAPKLLIYYTSNLHSGVPSRFSGSGSGTDFTLTISSLQPEDFATYYCQQYRKLPWTFGQGTKLEIKR
notes: also called AB200_D99H; D99H variant
In the case of B3, in assay [1], the Kd came out at 5.7 nM, the koff came out at 0.00105 s⁻¹ and the association rate constant (kon) came to 180000 M⁻¹ s⁻¹. In assay [2], this molecule returned a Kd of 2.08 nM, a koff of 0.00037 s⁻¹ and a kon of 180000 M⁻¹ s⁻¹.

B4: AB200_Fab + D99N (Fab, name in Kabat numbering, V domains shown)
VH: QVQLVQSGAEVKKPGSSVKVSCKASGGTFSNYWMHWVRQAPGQGLEWMGATYRGHSDTYYNQKFKGRVTITADKSTSTAYMELSSLRSEDTAVYYCARGAIYNGYDVLDNWGQGTLVTVSS
VL: DIQMTQSPSSLSASVGDRVTITCSASQDISNYLNWYQQKPGKAPKLLIYYTSNLHSGVPSRFSGSGSGTDFTLTISSLQPEDFATYYCQQYRKLPWTFGQGTKLEIKR
notes: also called D99N variant
In assay [1], B4 showed an equilibrium dissociation constant (Kd) of 3.32 nM, a koff of 0.00066 s⁻¹ and a kon of 200000 M⁻¹ s⁻¹. Moreover, in assay [2], the equilibrium dissociation constant (Kd) amounted to 1.23 nM, the koff came to 0.00023 s⁻¹ and the on-rate constant (kon) came out at 190000 M⁻¹ s⁻¹.

B5: AB200_Fab + D99Q (Fab, name in Kabat numbering, V domains shown)
VH: QVQLVQSGAEVKKPGSSVKVSCKASGGTFSNYWMHWVRQAPGQGLEWMGATYRGHSDTYYNQKFKGRVTITADKSTSTAYMELSSLRSEDTAVYYCARGAIYQGYDVLDNWGQGTLVTVSS
VL: DIQMTQSPSSLSASVGDRVTITCSASQDISNYLNWYQQKPGKAPKLLIYYTSNLHSGVPSRFSGSGSGTDFTLTISSLQPEDFATYYCQQYRKLPWTFGQGTKLEIKR
On to B5, for which, in assay [1], the Kd was 7.63 nM, the koff worked out at 0.0014 s⁻¹ and the kon amounted to 180000 M⁻¹ s⁻¹. In assay [2], the Kd is 3.06 nM, the koff stood at 0.00053 s⁻¹ and the association rate constant (kon) came out at 170000 M⁻¹ s⁻¹.

B6: AB200-(2Vk30)_R2-VH-v4 (Fab, V domains shown)
VH: QVQLVQSGAEVKKPGSSVKVSCKASGGTFTNYWIHWVRQAPGQGLEWMGATYRSHSDTNYAQKFKSRVTITADKSTSTAYMELSSLRSEDTAVYYCARGAIYHGYDVIENWGQGTLVTVSS
VL: DIQMTQSPSSLSASVGDRVTITCRASQSISSYLNWYQQKPGKAPKLLIYATSNLQIGVPSRFSGSGSGTDFTLTISSLQPEDFATYYCQQYRRIPWTFGQGTKLEIKR
As to B6, the Kd in assay [5] was 125 nM; in assay [6], 46.4 nM.

B7: AB200_Fab + D99S (Fab, name in Kabat numbering, V domains shown)
VH: QVQLVQSGAEVKKPGSSVKVSCKASGGTFSNYWMHWVRQAPGQGLEWMGATYRGHSDTYYNQKFKGRVTITADKSTSTAYMELSSLRSEDTAVYYCARGAIYSGYDVLDNWGQGTLVTVSS
VL: DIQMTQSPSSLSASVGDRVTITCSASQDISNYLNWYQQKPGKAPKLLIYYTSNLHSGVPSRFSGSGSGTDFTLTISSLQPEDFATYYCQQYRKLPWTFGQGTKLEIKR
In assay [1], B7 registered a dissociation constant Kd of 9.75 nM, an off-rate constant (koff) of 0.00114 s⁻¹ and a kon of 120000 M⁻¹ s⁻¹. In assay [2], this molecule returned a Kd of 3.86 nM, a dissociation rate constant (koff) of 0.00044 s⁻¹ and a kon of 110000 M⁻¹ s⁻¹.

B8: AB200-(2Vk30)_R2-VH-v10 (Fab, V domains shown)
VH: QVQLVQSGAEVKKPGSSVKVSCKASGGTYSNYWIHWVRQAPGQGLEWMGATYRSHSDTNYNQKYKSRVTITADKSTSTAYMELSSLRSEDTAVYYCARGAIYHGYDVIENWGQGTLVTVSS
VL: DIQMTQSPSSLSASVGDRVTITCRASQSISSYLNWYQQKPGKAPKLLIYATSNLQIGVPSRFSGSGSGTDFTLTISSLQPEDFATYYCQQYRRIPWTFGQGTKLEIKR
Consider B8, for which the dissociation constant Kd in assay [5] worked out at 330 nM; in assay [6], 85.8 nM.

B9: AB200-(2Vk30)_R2-VH-v16 (Fab, V domains shown)
VH: QVQLVQSGAEVKKPGSSVKVSCKASGGSFSNYWIHWVRQAPGQGLEWMGGTYRSHSDTNYNQKFKSRVTITADKSTSTAYMELSSLRSEDTAVYYCARGAIFHGYDVIDNWGQGTLVTVSS
VL: DIQMTQSPSSLSASVGDRVTITCRASQSISSYLNWYQQKPGKAPKLLIYATSNLQIGVPSRFSGSGSGTDFTLTISSLQPEDFATYYCQQYRRIPWTFGQGTKLEIKR
As to B9, the figures for the dissociation constant (Kd) in assay [5] and in assay [6] were 178 nM and 74.6 nM, respectively.

B10: AB200_Fab + D99T (Fab, name in Kabat numbering, V domains shown)
VH: QVQLVQSGAEVKKPGSSVKVSCKASGGTFSNYWMHWVRQAPGQGLEWMGATYRGHSDTYYNQKFKGRVTITADKSTSTAYMELSSLRSEDTAVYYCARGAIYTGYDVLDNWGQGTLVTVSS
VL: DIQMTQSPSSLSASVGDRVTITCSASQDISNYLNWYQQKPGKAPKLLIYYTSNLHSGVPSRFSGSGSGTDFTLTISSLQPEDFATYYCQQYRKLPWTFGQGTKLEIKR
Consider B10, for which, in assay [1], the equilibrium dissociation constant (Kd) was determined as 11.5 nM, the koff worked out at 0.00099 s⁻¹ and the kon worked out at 90000 M⁻¹ s⁻¹. For the same molecule, in assay [2], the Kd was determined as 3.72 nM, the off-rate (koff) was 0.0003 s⁻¹ and the on-rate constant (kon) is 80000 M⁻¹ s⁻¹.

B11: AB200-(2Vk30)_R2-VH-v13 (Fab, V domains shown)
VH: QVQLVQSGAEVKKPGSSVKVSCKASGGSFSNYWIHWVRQAPGQGLEWMGGTYRSHSDTYYAQKFKSRVTITADKSTSTAYMELSSLRSEDTAVYYCARGAIYHGYDVIENWGQGTLVTVSS
VL: DIQMTQSPSSLSASVGDRVTITCRASQSISSYLNWYQQKPGKAPKLLIYATSNLQIGVPSRFSGSGSGTDFTLTISSLQPEDFATYYCQQYRRIPWTFGQGTKLEIKR
With B11, the results for the dissociation constant (Kd) in assay [5] and in assay [6] were 144 nM and 44.7 nM, respectively.

B12: AB200_Fab + D99E (Fab, name in Kabat numbering, V domains shown)
VH: QVQLVQSGAEVKKPGSSVKVSCKASGGTFSNYWMHWVRQAPGQGLEWMGATYRGHSDTYYNQKFKGRVTITADKSTSTAYMELSSLRSEDTAVYYCARGAIYEGYDVLDNWGQGTLVTVSS
VL: DIQMTQSPSSLSASVGDRVTITCSASQDISNYLNWYQQKPGKAPKLLIYYTSNLHSGVPSRFSGSGSGTDFTLTISSLQPEDFATYYCQQYRKLPWTFGQGTKLEIKR
Regarding B12, in assay [1], the dissociation constant Kd turned out to be 13.6 nM, the dissociation rate constant (koff) came to 0.00219 s⁻¹ and the association rate constant (kon) is 160000 M⁻¹ s⁻¹. In addition, in assay [2], the dissociation constant (Kd) amounted to 5.92 nM, the koff was 0.00091 s⁻¹ and the on-rate (kon) stood at 150000 M⁻¹ s⁻¹.

By Kd is commonly meant the concentration at which binding is half-saturated. The term koff denotes the first-order rate constant of dissociation. By kon is commonly meant the second-order rate constant of association.

The record behind these values is patent publication US20240327535A1 (EISAI R AND D MANAGEMENT, published 2024).
